Results taken from article PMC12831459, “Identification and characterization of a TGF-β-independent SMAD4–NFATc1–STAT3 regulatory axis” (Journal of Molecular Cell Biology, 2025).

Biological target: T1, GST-SMAD4 (full-length, WT) (human, UniProt Q13485 1-552)
T1 construct: SMAD4, human, Human ORFeome V8.1 clone; Gateway mammalian GST expression vector (Li et al., 2017); details in the Supplementary material; also called GST-tagged SMAD4 FL; GST-tagged SMAD4 WT; source: HEK293T, transfected, in lysate
T1 sequence (looked up): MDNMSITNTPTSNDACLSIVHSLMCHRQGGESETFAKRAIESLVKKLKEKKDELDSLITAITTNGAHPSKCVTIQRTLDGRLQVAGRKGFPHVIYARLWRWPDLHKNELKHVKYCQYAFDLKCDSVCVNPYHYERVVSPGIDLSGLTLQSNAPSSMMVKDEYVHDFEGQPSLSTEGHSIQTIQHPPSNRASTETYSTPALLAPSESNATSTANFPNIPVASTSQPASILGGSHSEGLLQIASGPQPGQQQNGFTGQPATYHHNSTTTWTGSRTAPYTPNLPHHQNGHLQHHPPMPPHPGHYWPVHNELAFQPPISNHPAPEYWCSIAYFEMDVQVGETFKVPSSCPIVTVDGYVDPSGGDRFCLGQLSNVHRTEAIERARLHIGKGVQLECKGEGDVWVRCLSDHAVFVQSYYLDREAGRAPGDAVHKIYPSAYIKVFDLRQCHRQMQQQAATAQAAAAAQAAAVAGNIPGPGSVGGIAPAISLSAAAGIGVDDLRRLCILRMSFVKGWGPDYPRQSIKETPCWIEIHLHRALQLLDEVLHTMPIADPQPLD
Experiment: FRET or BRET; TR-FRET of single pairs: GST-SMAD4 (WT, domain truncations, truncation mutants) with VF-tagged partners; signal as fold change over empty vector controls
Settings: partners not purified

B1: Venus-Flag-tagged NFATc1 (VF-NFATc1), full-length WT (natural protein, human, UniProt O95644-2 1-716, looked up)
chain: MPSTSFPVPSKFPLGPAAAVFGRGETLGPAPRAGGTMKSAEEEHYGYASSNVSPALPLPTAHSTLPAPCHNLQTSTPGIIPPADHPSGYGAALDGGPAGYFLSSGHTRPDGAPALESPRIEITSCLGLYHNNNQFFHDVEVEDVLPSSKRSPSTATLSLPSLEAYRDPSCLSPASSLSSRSCNSEASSYESNYSYPYASPQTSPWQSPCVSPKTTDPEEGFPRGLGACTLLGSPRHSPSTSPRASVTEESWLGARSSRPASPCNKRKYSLNGRQPPYSPHHSPTPSPHGSPRVSVTDDSWLGNTTQYTSSAIVAAINALTTDSSLDLGDGVPVKSRKTTLEQPPSVALKVEPVGEDLGSPPPPADFAPEDYSSFQHIRKGGFCDQYLAVPQHPYQWAKPKPLSPTSYMSPTLPALDWQLPSHSGPYELRIEVQPKSHHRAHYETEGSRGAVKASAGGHPIVQLHGYLENEPLMLQLFIGTADDRLLRPHAFYQVHRITGKTVSTTSHEAILSNTKVLEIPLLPENSMRAVIDCAGILKLRNSDIELRKGETDIGRKNTRVRLVFRVHVPQPSGRTLSLQVASNPIECSQRSAQELPLVEKQSTDSYPVVGGKKMVLSGHNFLQDSKVIFVEKAPDGHHVWEMEAKTDRDLCKPNSLVVEIPPFRNQRITSPVHVSFYVCNGKRKRSQYQRFTYLPANGNAIFLTVSREHERVGCFF
notes: NFATc1, human, Human ORFeome V8.1 clone; also called VF-tagged NFATc1 FL; VF-tagged NFATc1 WT; source: HEK293T, transfected, in lysate; in live cells for the BRET screen
TR-FRET PPI signal, fold-of-change (FOC) over negative controls: > 3 fold
